This is an account of results in patent publication US20250195685A1 (CAPSTAN THERAPEUTICS, published 2025).

The target of assay [1] is T1, insulin (Sigma).
T1 construct: Antigen of the polyreactivity ELISA
The assay is described as follows: polyreactive ELISA, insulin coated, 100 nM antibody. Here is the method:
Insulin ([…]; Sigma) and dsDNA ([…]; Sigma) were coated onto 96-well high-binding ELISA microplates (Corning) at 50 μL per well overnight at 4° C. Plates were blocked with PBS with 0.5% BSA (blocking buffer) at room temperature (RT) for 1 h, followed by three washes with PBST (PBS with 0.1% Tween-20). 50 μL of 100 nM antibody in blocking buffer was added to each well and incubated at RT for 1 h, followed by six washes with 100 μL of PBS. 50 μL of diluted anti-human IgG-horseradish peroxidase (HRP) conjugate (Jackson ImmunoResearch) was added to the wells and incubated for 1 h followed by another six washes. Finally, 50 μL of 3, 3′, 5, 5′-Tetramethylbenzidine (TMB) substrate (Fisher Scientific) was added to each well to develop the detection signal. The reactions were stopped by adding 50 μL of 2 M sulfuric acid to each well. The absorbance was measured at 450 nm using a multimode microplate reader. Ustekinumab as the control antibody with low polyreactivity and bococizumab as a highly polyreactive antibody control were also included in the polyreactive ELISA assessment.
The first assessment tested for low non-specific binding to dsDNA and insulin by ELISA. […] Thus, by this standard, none of the tested antibodies were polyreactive.
For orientation: ELISA stands for enzyme-linked immunosorbent assay.

Assay [2] has as its target T2, human CD8αα homodimer, recombinant protein (Acro Biosystems) (human, UniProt P01732 22-182).
T2 construct: also called CD8αα antigen; biotinylated CD8α recombinant protein (CDA-H82E3)
The assay is described as follows: BLI steady state, whole hIgG1-LALAPA antibody on CD8α-His (Ni-NTA sensor), 30 °C. Here is the method:
(§1) To assess affinity of whole antibodies, steady state analysis was used as the bivalent nature of both whole antibody and CD8α complicates kinetic analysis. 50 nM CD8α-His (that is, CD8α with a C-terminal oligohistidine tag; Acro) was immobilized on Ni-NTA sensor probes. Binding was analyzed with a three-fold antibody dilutions series: 60 nM, 20 nM, 6.67 nM, 2.22 nM, 0.74 nM, and 0.25 nM. The antigen-loaded sensors were incubated in the diluted solutions to capture the whole IgG antibody for 300 s to record the association phase. Sensors were incubated in the kinetic buffer for 900 s to record the dissociation phase. The spin speed was 1000 rpm for all steps except the antigen loading step which was 400 rpm to control density of the antigen. The temperature of the performed assays was at 30° C. during the association and dissociation phases. The sensor data were baseline subtracted and further analyzed in GatorOne software (version 2.10) to determine the equilibrium dissociation constants (KD) of the antibodies by fitting the signals of the steady states to the 1:1 binding model.

Assay [3] deals with T3, human CD8 on cells (CD8-overexpressing HEK293T cells, SupT1, HPB-ALL, human T cells, transfected HEK293 of … (human, UniProt P01732 22-235)).
T3 construct: whole, on cells; also called cell surface CD8
As to the kind of experiment: flow cytometry on CD8-overexpressing HEK293T cells, non-linear fit of normalized gMFI. On the procedure: To obtain the results shown in FIG. 3A, that determined EC₅₀ values for antigen-specific binding, CD8-overexpressing HEK293T cells were dissociated in Versine solution (PBS buffer at pH 7.4 supplemented with 0.5 mM EDTA), and 2×10⁵ total cells were transferred to a V-bottom 96 well culture plate (Corning). Cells were washed twice with Cell Staining buffer (#420201, Biolegend). Each anti-CD8α antibody with human IgG1 isotype and Fc-silencing mutations L234A, L235A and P329A was diluted in four-fold antibody titration series from 100 μg/mL to 6.1 ng/ml into Cell Staining buffer. eFluor 780 Fixable Viability dye (eBioscience) was also included during antibody solutions at a 1:4000 dilution. Cells were stained with each diluted antibody solution for 30 minutes on ice. Cells were then washed three times with Cell Staining buffer and primary antibody binding was detected by staining with anti-human Fc BV421 conjugate antibody (#410704, Biolegend) at 1:100 dilution for 30 minutes on ice. After staining with the secondary detection antibody, cells were washed three times with Cell Staining buffer, fixed in FluoroFix buffer (Biolegend) and kept at 4° C. in the dark until analysis. Flow cytometry analysis on each sample was performed on an Agilent NovoCyte flow cytometer. Flow cytometry data was analyzed by Flowjo 10 (Becton, Dickinson & Company) to measure the geometric median fluorescence intensity (gMFI) of the on-cell binding from each antibody. The gMFI values were normalized with the gMFI measured in the sample stained with only the secondary detection antibody and plotted against the concentration of the added antibodies. The binding curves were constructed using the Graphpad Prism software, and EC₅₀ values were determined by non-linear curve fitting.
(A flow cytometer gives signals particle by particle.)

For assay [4], the target named is T4, custom recombinant human CD8α mouse IgG2a Fc fusion protein (human; mouse, UniProt P01732 22-182, limits assumed).
T4 construct: Custom protein; also called human CD8α mouse Fc fusion protein; not shown: mouse IgG2a Fc
As to the kind of experiment: BLI kinetic sensorgram, 1:1 global fit, 37 °C. Here is the method:
(§2) The global fitting was performed with a 1:1 fitting model using GatorOne software as described below.
(§3) To measure the binding kinetics of the biotin-conjugated Fab molecule, streptavidin-immobilized SA-XT sensors (#160029, Gator Bio) were prehydrated in the kinetic buffer and loaded with […] biotinylated Fab sample CBD1033.37 or CBD1033.24 to a threshold response of 10 nm. […] The binder-loaded sensors were incubated in the diluted solutions to capture the CD8α protein for 1200 s to record the association phase. Sensors were finally incubated in the kinetic buffer for another 1200 s to record the dissociation phase. The spin speed for all steps was 1000 rpm. The temperature of the performed assays were at 37° C. during the association and dissociation. The sensor data were baseline subtracted, and global curve fitting of the kinetic data from six different analyte concentrations at a 1:1 monovalent binding model was performed using the GatorOne software (version v2.10) to determine the kinetic rate constants (kₒₙ and koff) and equilibrium dissociation constants (KD) of the analyzed binder.
In general terms: Biolayer interferometry detects binding as a change in optical thickness at a sensor tip.

Assay [5] has as its target T4, custom recombinant human CD8α mouse …. As to the kind of experiment: BLI kinetics, biotin-conjugated F(ab') on SA-XT sensor, HuCD8a mouse Fc fusion as analyte, 37 °C. On the procedure: as §2, §3
Assay [6] addresses T2, human CD8αα homodimer, recombinant …. The assay is described as follows: BLI kinetic sensorgram, 1:1 global fit. On the procedure:
as §2, §3

Assay [7] shares this target. The assay is described as follows: BLI kinetic assay, engineered F(ab') fragment. Here is the method: as §2
Biolayer interferometry kinetic assays were performed using a GatorBio Gator Plus BLI system. Kinetic buffer containing PBS plus 0.1% Tween 20 and 0.2% BSA was used for calculating the baseline. To measure the binding kinetics of anti-CD8α antibody fragment (Fab), streptavidin-immobilized SA-XT sensors (#160029, Gator Bio) were prehydrated in the kinetic buffer and loaded with […] biotinylated CD8α recombinant protein (CDA-H82E3, Acro Biosystems) at a spin speed of 400 rpm to a threshold response of 10 nm. The sensors were then incubated in the kinetic buffer for 300 s to acquire a baseline measurement prior to each association. […] The antigen-loaded sensors were incubated in the diluted solutions to capture Fab fragments for 300 s to record the association phase. Sensors were finally incubated in the kinetic buffer for 900 s to record the dissociation phase. The spin speed for all steps except the antigen loading step was 1000 rpm. The temperature of the performed assays was either 30° C. or 37° C. during the association and dissociation phases. Sensor data were baseline subtracted, and global curve fitting of the kinetic data from six different analyte concentrations at a 1:1 monovalent binding model was performed using GatorOne software (version v2.10) to determine kinetic rate constants (kₒₙ and koff) and equilibrium dissociation constants (KD) of the analyzed antibodies.

The target is the same in assay [8]. The assay is described as follows: BLI, whole antibody.
For assay [9] the target is unchanged. As to the kind of experiment: BLI, whole antibody, steady state dissociation constant (column head x10^-9M). Here is the method:
as §1

T2 sequence (P01732 22-182 limits assumed): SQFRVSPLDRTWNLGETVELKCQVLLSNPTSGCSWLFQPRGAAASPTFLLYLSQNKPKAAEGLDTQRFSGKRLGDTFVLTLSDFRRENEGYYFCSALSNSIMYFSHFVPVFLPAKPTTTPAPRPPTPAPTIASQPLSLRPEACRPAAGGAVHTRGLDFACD
T4 sequence (P01732 22-182 limits assumed): as above
T3 sequence (P01732 22-235): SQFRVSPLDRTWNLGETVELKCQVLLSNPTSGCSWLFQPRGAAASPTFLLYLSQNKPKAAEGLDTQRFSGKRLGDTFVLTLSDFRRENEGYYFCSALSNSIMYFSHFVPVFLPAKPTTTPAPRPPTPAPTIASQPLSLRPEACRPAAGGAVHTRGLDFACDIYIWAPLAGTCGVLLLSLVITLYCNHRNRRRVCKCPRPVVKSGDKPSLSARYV
T1 sequence (P01308 25-54, chain 1 of 2): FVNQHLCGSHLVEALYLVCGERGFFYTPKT
T1 sequence (P01308 90-110, chain 2 of 2): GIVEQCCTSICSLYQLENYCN

B1: CBD1039 whole antibody, Fc-silenced human IgG1 (LALAPA) (antibody, V domains shown)
VH: QVQLVQSGAEVKKPGASVKISCKASRYTFTDYNLHWVRQAPGQGLEWIGFIYPYNGGTGYAQKFQGRATLTVDYSTSTAYMELSSLRSEDTAVYYCARDHRYNEGVSFDYWGQGTTLTVSS
VL: DIQLTQSPSSLSASVGDRATITCRASESVDGFGNSFMNWYQQKPGKAPKLLIYLASNLESGVPSRFSGSGSGTDFTLTISSVQPEDFATYYCQQNNEDPYTFGQGTKLEIKR
One may read the Kd as the equilibrium constant for the complex coming apart. A word on the EC50: it is the concentration needed to bring the measured effect to its halfway point. Low values mean a more potent agent, high ones a less potent agent. With B1, in [1], the “polyreactivity ELISA score” value turned out to be 1. In addition, in [2], the Kd amounted to 1.76 nM. This molecule returned an EC50 in assay [3] of 4.39 nM.

B2: maleimide-PEG-biotin conjugated CBD1033.37 F(ab') (Fab, V domains shown)
VH: QVQLVQSGAEVKKPGASVKVSCKASRYTFTDYNLHWVRQAPGQGLEWMGFIYPYNGGTGYAQKFQGRVTMTVDTSTSTAYMELSSLRSEDTAVYYCARDHRYNEGVSFDYWGQGTTVTVSS
VL: DIQLTQSPSSLSASVGDRATITCRASESVDGFGNSFMNWYQQKPGKAPKLLIYLASNLESGVPSRFSGSGSGTDFTLTISSVQPEDFATYYCQQNNEDPYTFGQGTKLEIKR
modifications: maleimide-PEG11-biotin on CH C230 (sequential numbering, corresponding to C239 in Kabat numbering)
notes: Loaded on streptavidin sensors through the biotin; also called biotinylated Fab sample CBD1033.37
In general, koff refers to the rate constant with which the complex falls apart. Usually kon stands for a measure of how fast the partners come together. With B2, in [4], the dissociation constant Kd was 6.85 nM, the koff is 0.000144 s⁻¹ and the kon is 20900 M⁻¹ s⁻¹. In addition, in [5], the Kd came out at 6.85 nM, the koff amounted to 0.000144 s⁻¹ and the kon came out at 20900 M⁻¹ s⁻¹.

B3: CBD1033.37 disulfide-engineered F(ab') analog (IgG1-derived) (Fab, V domains shown)
VH: QVQLVQSGAEVKKPGASVKVSCKASRYTFTDYNLHWVRQAPGQGLEWMGFIYPYNGGTGYAQKFQGRVTMTVDTSTSTAYMELSSLRSEDTAVYYCARDHRYNEGVSFDYWGQGTTVTVSS
VL: DIQLTQSPSSLSASVGDRATITCRASESVDGFGNSFMNWYQQKPGKAPKLLIYLASNLESGVPSRFSGSGSGTDFTLTISSVQPEDFATYYCQQNNEDPYTFGQGTKLEIKR
notes: Engineered CH1-F174C / CK-S162C interchain disulfide; native disulfide removed; also called .37 design
Consider B3, for which, in assay [6], the dissociation constant (Kd) stood at 4.01 nM, the koff was 6.28e-05 s⁻¹ and the kon was 15600 M⁻¹ s⁻¹. Also, in assay [7], the Kd turned out to be 4.01 nM, the koff was determined as 6.28e-05 s⁻¹ and the kon turned out to be 15600 M⁻¹ s⁻¹.

B4: CBD1382 whole antibody (VH N55A of CBD1033), Fc-silenced human IgG1 (antibody, V domains shown)
VH: QVQLVQSGAEVKKPGASVKVSCKASRYTFTDYNLHWVRQAPGQGLEWMGFIYPYAGGTGYAQKFQGRVTMTVDTSTSTAYMELSSLRSEDTAVYYCARDHRYNEGVSFDYWGQGTTVTVSS
VL: DIQLTQSPSSLSASVGDRATITCRASESVDGFGNSFMNWYQQKPGKAPKLLIYLASNLESGVPSRFSGSGSGTDFTLTISSVQPEDFATYYCQQNNEDPYTFGQGTKLEIKR
B4: in [8], the koff came out at 0.00195 s⁻¹ and the kon came to 1.63e+06 M⁻¹ s⁻¹. Besides, the Kd in assay [9] was 0.88 nM.

B5: CBD1040 whole antibody, Fc-silenced human IgG1 (LALAPA) (antibody, V domains shown)
VH: QVQLVQSGAEVKKPGASVKISCKASRYTFTDYNLHWVRQAPGQGLEWIGFIYPYNGGTGYAQKFQGRATLTVDYSTSTAYMELSSLRSEDTAVYYCARDHRYNEGVSFDYWGQGTTLTVSS
VL: DIQLTQSPSSLSASVGDRATITCRASESVDGFGNSFMNWYQQKPGKAPKLLIYLASNLESGVPSRFSGSGSRTDFTLTISSVQPEDFATYYCQQNNEDPYTFGQGTKLEIKR
For the molecule B5, in assay [1], the “polyreactivity ELISA score” value worked out at 1. Further, the Kd in assay [2] amounted to 4.06 nM. For the same molecule, the EC50 in [3] was 2.54 nM.

B6: CBD1381 whole antibody (VH N55Q of CBD1033), Fc-silenced human IgG1 (antibody, V domains shown)
VH: QVQLVQSGAEVKKPGASVKVSCKASRYTFTDYNLHWVRQAPGQGLEWMGFIYPYQGGTGYAQKFQGRVTMTVDTSTSTAYMELSSLRSEDTAVYYCARDHRYNEGVSFDYWGQGTTVTVSS
VL: DIQLTQSPSSLSASVGDRATITCRASESVDGFGNSFMNWYQQKPGKAPKLLIYLASNLESGVPSRFSGSGSGTDFTLTISSVQPEDFATYYCQQNNEDPYTFGQGTKLEIKR
Turning to B6, in assay [8], the koff amounted to 0.000795 s⁻¹ and the kon amounted to 1.91e+06 M⁻¹ s⁻¹. Further, the Kd in assay [9] came to 0.5 nM.

B7: CBD1380 whole antibody (VH N55S of CBD1033), Fc-silenced human IgG1 (antibody, V domains shown)
VH: QVQLVQSGAEVKKPGASVKVSCKASRYTFTDYNLHWVRQAPGQGLEWMGFIYPYSGGTGYAQKFQGRVTMTVDTSTSTAYMELSSLRSEDTAVYYCARDHRYNEGVSFDYWGQGTTVTVSS
VL: DIQLTQSPSSLSASVGDRATITCRASESVDGFGNSFMNWYQQKPGKAPKLLIYLASNLESGVPSRFSGSGSGTDFTLTISSVQPEDFATYYCQQNNEDPYTFGQGTKLEIKR
Take B7: in [8], the dissociation rate constant (koff) stood at 0.00192 s⁻¹ and the kon turned out to be 1.86e+06 M⁻¹ s⁻¹. Moreover, in assay [9], the Kd stood at 0.76 nM.
